Test results taken from patent US20120277281A1, “POLYNUCLEOTIDES FOR MEDICAL USE” (MAX-DELBRÜCK-CENTRUM FÜR MOLEKULARE MEDIZIN, priority 2009, published 2012).

What was measured:
[1] = target: T1, CSF1R (Homo sapiens, UniProt P07333); test: CSF1R tyrosine phosphorylation in L540Cy cells (CSF1R IP, p-Tyr western blot); type: cell-based; settings: L540Cy cells stimulated with rhCSF-1
T1 construct: endogenous in cells; host or cells: L540Cy (Hodgkin/Reed-Sternberg cell line)
Procedure: FIG. 1. Lineage-inappropriate expression of functional CSF1R and CSF-1 in Hodgkin lymphoma cells. Analysis of CSF1R and CSF-1 protein expression and of CSF1R:Fc functionality. (A) Analysis of CSF1R and CSF1 mRNA expression by RT-PCR in Hodgkin and non-Hodgkin cell lines. Expression of GAPDH was analyzed as a control. (1a) Analysis of CSF1R and CSF1 mRNA expression by RT-PCR in Hodgkin's and non-Hodgkin's cell lines. GAPDH expression was analyzed as a control. One representative of four independent experiments is shown. (B, C) Analysis of CSF1R (B) and CSF-1 (C) protein expression in various cell lines by extracellular and intracellular flow cytometry, respectively. IC, isotype control. (D) Supernatants of various cell lines were analyzed by a CSF-1-specific ELISA. […] CSF1R tyrosine phosphorylation was detected by WB with an antibody recognizing phospho-tyrosine (p-Tyr; upper panel). […] CSF1R tyrosine phosphorylation was detected by western blotting with an antibody recognizing phosphotyrosine (p-Tyr; top). […]
FIG. 3. […] After 48 hours, cells were pulsed with 1 μCi [^3H]-thymidine per well for a further 20 hours, and [^3H]-thymidine incorporation was determined cpm, counts per minute. […] (3A) [^3H]-thymidine incorporation in L540Cy cells left untreated (−) or treated with the indicated amounts of rhCSF-1 (black bars) or water control (open bars) under serum-reduced conditions (1% FCS) determined after 48 h. […]

[2] = system: L540Cy cells; test: [3H]-thymidine incorporation in L540Cy cells; type: cell-based, human; settings: 1% FCS, 48 h
Procedure: FIG. 3. HRS cells depend on CSF1R activity. (A) L540Cy cells were left untreated (−) or treated with the indicated amounts rhCSF-1 (closed bars) or the respective control (open bars) under serum reduced conditions (1% FCS). After 48 hours, cells were pulsed with 1 μCi [^3H]-thymidine per well for a further 20 hours, and [^3H]-thymidine incorporation was determined cpm, counts per minute. Data are represented as mean±SD. (3A) [^3H]-thymidine incorporation in L540Cy cells left untreated (−) or treated with the indicated amounts of rhCSF-1 (black bars) or water control (open bars) under serum-reduced conditions (1% FCS) determined after 48 h. Data are represented as means±s.d. […] After 24 hours, cells were pulsed with [^3H]-thymidine incorporation and analyzed as described in (A). […] CSF1R tyrosine phosphorylation was analyzed as described in FIG. 1F. […]
DNA synthesis was determined by [^3H]-thymidine incorporation assays using standard protocols. The percentage of viable and apoptotic cells was determined by annexin V-FITC/propidium iodide (PI) double-staining (Bender MedSystems) and subsequent FACS analysis.
We determined DNA synthesis by [^3H]-thymidine incorporation assays using standard protocols. In case of L540Cy cells (FIG. 1d), after 48 hours, cells were pulsed with 1 μCi [^3H]-thymidine per well for a further 20 hours, and [^3H]-thymidine incorporation was determined. […]

T1 sequence (P07333 20-972): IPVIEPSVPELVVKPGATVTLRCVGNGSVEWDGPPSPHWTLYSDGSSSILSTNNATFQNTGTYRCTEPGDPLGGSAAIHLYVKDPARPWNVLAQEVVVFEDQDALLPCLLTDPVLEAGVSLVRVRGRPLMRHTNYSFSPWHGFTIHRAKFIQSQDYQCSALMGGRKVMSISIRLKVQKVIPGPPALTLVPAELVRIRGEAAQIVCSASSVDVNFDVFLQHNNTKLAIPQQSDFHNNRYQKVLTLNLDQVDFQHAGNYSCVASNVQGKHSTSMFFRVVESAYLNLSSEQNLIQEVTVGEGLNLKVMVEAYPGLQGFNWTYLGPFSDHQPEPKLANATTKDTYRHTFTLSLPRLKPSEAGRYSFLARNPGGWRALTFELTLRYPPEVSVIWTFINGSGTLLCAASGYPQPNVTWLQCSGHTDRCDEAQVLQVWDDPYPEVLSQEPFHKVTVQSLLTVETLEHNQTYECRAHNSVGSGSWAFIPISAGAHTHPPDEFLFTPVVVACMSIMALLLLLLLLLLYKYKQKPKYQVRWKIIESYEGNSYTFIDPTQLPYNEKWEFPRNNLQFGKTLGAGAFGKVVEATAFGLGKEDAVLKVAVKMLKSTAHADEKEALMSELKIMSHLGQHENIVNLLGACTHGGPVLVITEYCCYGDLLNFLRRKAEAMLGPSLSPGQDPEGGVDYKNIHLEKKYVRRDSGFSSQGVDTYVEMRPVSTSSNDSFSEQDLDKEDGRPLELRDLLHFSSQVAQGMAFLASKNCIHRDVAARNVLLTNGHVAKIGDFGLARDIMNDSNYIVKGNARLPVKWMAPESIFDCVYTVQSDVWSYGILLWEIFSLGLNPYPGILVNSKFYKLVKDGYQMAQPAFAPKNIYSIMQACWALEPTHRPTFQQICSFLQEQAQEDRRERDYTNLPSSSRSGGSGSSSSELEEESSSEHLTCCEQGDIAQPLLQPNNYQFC

CSF1R tyrosine phosphorylation following stimulation [1]: rapid increase
B1: rhCSF-1: recombinant human CSF-1 (216-MC, R&D Systems) (protein)
chain: EEVSEYCSHMIGSGHLQSLQRLIDSQMETSCQITFEFVDQEQLKDPVCYLKKAFLLVQDIMEDTMRFRDNTPNAIAIVQLQELSLRLKSCFTKDYEEHDKACVRTFYETPLQLLEKVKNVFNETKNLLDKDWNIFSKNCNNSFAECSSQDVVTKPDCN
proliferation ([3H]-thymidine incorporation) [2]: induced proliferation in a dose-dependent manner
